# Data reported in patent US20250353911A1 (INHIBRX BIOSCIENCES, published 2025).
# Read-outs that look alike come from different tables or passages of the source.
# Experiments:
# [1] = biological target: T1, Rat serum albumin (RSA) (rat, UniProt P02770 25-608); assay: ELISA on coated rat albumin, anti-human Fc HRP, A650, one site-total binding fit
# T1 construct: Bought protein (Sigma); also called rat albumin
# Protocol: (§1) Medisorp plates were coated with albumin protein at 2 μg/ml, 50 μl/well at 4° C. overnight (human, murine, and rat albumin-Sigma, cynomolgus monkey albumin-Abcam). 1× Fish Gelatin (blocking agent, Bethyl Laboratories) was added to albumin-coated wells followed by a 1 hour incubation at RT. Titrations of sdAb fusion proteins (starting at 100 nM, across 1:3 or down 1:4) were added and incubated for 1 hour at RT. Plates were washed 3 times with 0.1% D-PBST, and then anti-human Fc HRP antibody (1:2000 in 0.1% D-PBST, Jackson) was added and incubated for 30 minutes at RT. Plates were washed 3 times with 0.1% D-PBST, and then TMB substrate was added. Absorbance at 650 nm was read on a plate reader (Molecular Devices) and data were plotted using equation one site-total binding (Model: Y=Bmax*X/(Kd+X)+NS*X+Background, GraphPad Prism).
# [2] = biological target: T2, Human serum albumin (HSA) (human, UniProt P02768 25-609); assay: ELISA on coated human albumin, anti-human Fc HRP, A650, one site-total binding fit
# T2 construct: also called human albumin; recombinant human albumin
# T2 sequence (P02768 25-609): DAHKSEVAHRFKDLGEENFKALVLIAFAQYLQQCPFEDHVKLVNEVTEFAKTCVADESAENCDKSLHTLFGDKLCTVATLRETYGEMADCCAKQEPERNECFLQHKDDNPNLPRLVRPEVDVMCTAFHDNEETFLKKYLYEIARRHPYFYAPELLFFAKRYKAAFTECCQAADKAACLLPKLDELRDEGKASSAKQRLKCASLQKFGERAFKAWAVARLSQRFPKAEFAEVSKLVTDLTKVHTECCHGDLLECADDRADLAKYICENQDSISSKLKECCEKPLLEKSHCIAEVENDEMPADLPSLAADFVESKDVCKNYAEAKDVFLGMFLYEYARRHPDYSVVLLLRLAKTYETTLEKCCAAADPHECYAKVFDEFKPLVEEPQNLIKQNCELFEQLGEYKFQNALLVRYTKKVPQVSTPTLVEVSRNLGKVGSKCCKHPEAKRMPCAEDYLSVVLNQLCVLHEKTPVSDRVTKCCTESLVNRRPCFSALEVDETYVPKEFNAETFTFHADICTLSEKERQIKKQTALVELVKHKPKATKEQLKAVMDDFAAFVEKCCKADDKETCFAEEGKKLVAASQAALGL
# Protocol: as §1
# [3] = biological target: T3, Murine serum albumin (MSA) (mouse, UniProt P07724 25-608); assay: ELISA on coated murine albumin, anti-human Fc HRP, A650, one site-total binding fit
# T3 construct: Bought protein (Sigma); also called murine albumin; mouse albumin
# Protocol: as §1
# [4] = biological target: T4, Cynomolgus monkey serum albumin (CSA) (cynomolgus monkey, UniProt A2V9Z4 25-608); assay: ELISA on coated cynomolgus monkey albumin, anti-human Fc HRP, A650, one site-total binding fit
# T4 construct: Bought protein (Abcam); also called cynomolgus monkey albumin
# T4 sequence (A2V9Z4 25-608): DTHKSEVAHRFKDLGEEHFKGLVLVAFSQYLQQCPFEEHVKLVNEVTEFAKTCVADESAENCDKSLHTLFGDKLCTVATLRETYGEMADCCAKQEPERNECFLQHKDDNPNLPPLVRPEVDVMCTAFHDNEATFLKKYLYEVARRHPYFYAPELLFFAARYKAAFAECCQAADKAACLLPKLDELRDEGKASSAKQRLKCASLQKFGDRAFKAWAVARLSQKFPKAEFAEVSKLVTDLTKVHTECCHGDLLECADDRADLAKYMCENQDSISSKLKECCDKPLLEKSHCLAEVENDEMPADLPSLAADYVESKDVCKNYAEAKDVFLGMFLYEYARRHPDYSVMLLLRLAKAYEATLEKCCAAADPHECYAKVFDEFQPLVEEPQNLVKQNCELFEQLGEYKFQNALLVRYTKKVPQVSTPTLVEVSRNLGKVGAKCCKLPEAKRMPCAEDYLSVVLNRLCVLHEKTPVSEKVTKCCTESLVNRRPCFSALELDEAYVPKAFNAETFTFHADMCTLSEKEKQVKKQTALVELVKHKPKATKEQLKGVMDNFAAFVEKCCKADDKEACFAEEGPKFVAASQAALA
# Protocol: as §1
# [5] = biological target: T1, Rat serum albumin (RSA); assay: ELISA on coated rat albumin, anti-human Fc HRP, A650, one site-total binding fit; remark: listed apart in the source
# Protocol: as §1
# [6] = biological target: T2, Human serum albumin (HSA); assay: ELISA on coated human albumin, anti-human Fc HRP, A650, one site-total binding fit; remark: listed apart in the source
# Protocol: as §1
# [7] = biological target: T3, Murine serum albumin (MSA); assay: ELISA on coated murine albumin, anti-human Fc HRP, A650, one site-total binding fit; remark: listed apart in the source
# Protocol: as §1
# [8] = biological target: T4, Cynomolgus monkey serum albumin (CSA); assay: ELISA on coated cynomolgus monkey albumin, anti-human Fc HRP, A650, one site-total binding fit; remark: listed apart in the source
# Protocol: as §1
# [9] = biological target: T2, Human serum albumin (HSA); assay: ELISA on coated human albumin, pH 7.4, HRP detection antibody, A450
# Protocol: (§2) 96-well ELISA plates were coated with albumin protein in PBS overnight at 4° C., washed with PBS-T and then blocked with 5% milk powder in PBS-T for 1 h at room temperature. Serial dilutions of test articles were prepared in PBS pH 7.4 or a buffer containing 20 mM His, 150 mM NaCl, pH 5.5 and added to the plates. Plates were incubated for 1 h at room temperature. After the incubation cells were washed in the respective buffer and then incubated for 30 min at room temperature with a HRP-conjugated antibody detecting the polypeptides. Plates were washed in their respective buffers and TMB substrate was added and color allowed to develop. TMB substrate was stopped with an equal volume of stop solution (1M H₂SO₄). Absorbance at 450 nm was measured with a 96 well plate reader.
# [10] = biological target: T2, Human serum albumin (HSA); assay: ELISA on coated human albumin, pH 5.5, HRP detection antibody, A450
# Protocol: as §2
# [11] = biological target: T5, human FcRn extracellular domain (ECD) fused to a transmembrane domain and an intracellular citrine, with … (human); assay: flow cytometry, CHO cells transiently expressing human FcRn ECD-TM-citrine and B2M, pH 6, AF647 detection antibody
# T5 construct: also called human FcRn overexpressed on CHO cells; FcRn transfected CHO cells
# Protocol: (§3) Binding of anti-FcRn VHH polypeptides to human FcRn at neutral (7.4) or endosomal (6) pH was tested by flow cytometry using a CHO-based overexpression system or isolated human peripheral blood mononuclear cells (PBMC).
# (§4) CHO cells were plated in 96-well plates at 50,000 cells per well and resuspended in PBS, pH 7.4 or a buffer containing 20 mM His, 150 mM NaCl, pH 6. Serial dilutions of test articles were prepared at 2× the final concentration in the buffers described above (pH 7.4 or pH 6) and added to the cell suspensions. Plates were incubated for 60 minutes at 4° C. After the incubation cells were washed in the respective buffer and then incubated for 30 minutes at 4° C. with a fluorescently labeled (AF647) antibody detecting the VHH polypeptides. Binding of the detection antibody to FcRn on transfected cells (citrine positive) was measured after a final wash using an iQue Screener (Sartorius).
# [12] = biological target: T5, human FcRn extracellular domain (ECD) …; assay: flow cytometry, CHO cells transiently expressing human FcRn ECD-TM-citrine and B2M, pH 7.4, AF647 detection antibody
# Protocol: as §3, §4
# T1 sequence (P02770 25-608): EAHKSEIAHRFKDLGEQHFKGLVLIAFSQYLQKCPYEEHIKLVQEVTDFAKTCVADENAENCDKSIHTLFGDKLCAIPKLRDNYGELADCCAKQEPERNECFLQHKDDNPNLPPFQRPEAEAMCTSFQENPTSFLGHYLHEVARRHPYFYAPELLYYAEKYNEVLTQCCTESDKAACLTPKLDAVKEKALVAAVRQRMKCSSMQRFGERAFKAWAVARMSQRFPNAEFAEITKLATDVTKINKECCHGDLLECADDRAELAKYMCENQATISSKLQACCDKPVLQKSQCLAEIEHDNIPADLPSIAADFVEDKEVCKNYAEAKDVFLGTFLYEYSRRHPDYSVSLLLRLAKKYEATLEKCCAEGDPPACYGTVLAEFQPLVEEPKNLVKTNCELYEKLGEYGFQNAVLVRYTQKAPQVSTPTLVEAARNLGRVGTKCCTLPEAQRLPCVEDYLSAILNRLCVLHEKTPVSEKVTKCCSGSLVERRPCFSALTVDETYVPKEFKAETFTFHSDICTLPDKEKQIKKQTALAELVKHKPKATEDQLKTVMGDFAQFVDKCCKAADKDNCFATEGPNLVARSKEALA
Kd [1] [nM],Kd [2] [nM],Kd [3] [nM],Bmax [1] [A650],Bmax [2] [A650],Bmax [3] [A650],Bmax [8] [A650],Kd [8] [nM],Binder,other results
0.162,0.124,0.121,–,–,–,–,–,"4A01v3 (Fc fusion, also called Hz4A01v3; not shown: Human Fc carrier and its linker) VHH: EVQLVESGGGEVQPGGSLRLSCAASGFAFSTSGMVWVRQAPGKGLEWVSTISDDARIIRYAESVKGRFTISRDNAKNTLYLQMNSLRAEDTAVYYCATYRAGSRIGSYEDYYRGQGTLVTVKP",Bmax [4]: 0.994 A650; Kd [4]: 0.338 nM
–,–,–,–,–,–,–,–,"4A01v6 (Fc fusion, not shown: a dimerising Fc or GST; small tags and cut ends, also called Hz4A01v6) VHH: EVQLVESGGGEVQPGGSLRLSCAASGFAFSTSGMVWVRQAPGKGLEWVSTISDSGRIIRYAESVKGRFTISRDNAKNTLYLQMNSLRAEDTAVYYCATYRAGSRIGSYEDYYRGQGTLVTVKP",Bmax [5]: 1.02 A650; Kd [5]: 0.273 nM; Bmax [6]: 0.94 A650; Kd [6]: 0.332 nM; Bmax [7]: 1.09 A650; Kd [7]: 0.206 nM; Bmax [4]: 0.961 A650; Kd [4]: 0.225 nM
–,–,–,–,–,–,–,–,"4A01v8 (Fc fusion, not shown: a dimerising Fc or GST; small tags and cut ends, also called Hz4A01v8) VHH: EVQLVESGGGEVQPGGSLRLSCAASGFAFSTSGMVWVRQAPGKGLEWVSTISDNARIIRYAESVKGRFTISRDNAKNTLYLQMNSLRAEDTAVYYCATYRAGSRIGSYEDYYRGQGTLVTVKP",Bmax [5]: 1.01 A650; Kd [5]: 0.328 nM; Bmax [6]: 0.955 A650; Kd [6]: 0.428 nM; Bmax [7]: 1.1 A650; Kd [7]: 0.226 nM
0.184,0.139,0.129,1.28,1.34,1.35,1.31,0.157,"4A01v1 (Fc fusion, also called Hz4A01v1; not shown: Human Fc carrier and its linker) VHH: EVQLVESGGGEVQPGGSLRLSCAASGFAFSTSGMVWVRQAPGKGLEWVSTISDDSRIIRYAESVKGRFTISRDNAKNTLYLQMNSLRAEDTAVYYCATYRAGSRIGSYEDYYRGQGTLVTVKP",–
0.162,0.121,0.112,1.35,1.39,1.31,1.34,0.126,"4A01v3-5 (Fc fusion, also called Hz4A01v3-5; not shown: Human Fc carrier and its linker) VHH: EVQLVESGGGEVQPGGSLRLSCAASGFAFSTSGMVWYRQAPGKGLEWVSTISDDARIIRYAESVKGRFTISRDNAKNTLYLQMNSLRAEDTAVYYCATYRAGSRIGSYEDYYRGQGTLVTVKP",–
0.123,0.121,0.111,1.35,1.4,1.32,1.31,0.118,"4A01v3-7 (Fc fusion, also called Hz4A01v3-7; not shown: Human Fc carrier and its linker) VHH: EVQLVESGGGEVQPGGSLRLSCAASGFAFSTSGMVWVRQAPGKGLEWVSTISDDARIIRYAESVKGRFTISRDNAKNTVYLQMNSLRAEDTAVYYCATYRAGSRIGSYEDYYRGQGTLVTVKP",–
0.144,0.115,0.112,1.27,1.35,1.3,1.29,0.117,"4A01v9 (Fc fusion, not shown: a dimerising Fc or GST; small tags and cut ends, also called Hz4A01v9) VHH: EVQLVESGGGEVQPGGSLRLSCAASGFAFSTSGMVWVRQAPGKGLEWVSTISDDTRIIRYAESVKGRFTISRDNAKNTLYLQMNSLRAEDTAVYYCATYRAGSRIGSYEDYYRGQGTLVTVKP",–
0.13,0.123,0.109,1.28,1.32,1.29,1.29,0.127,"4A01v3-1 (Fc fusion, not shown: a dimerising Fc or GST; small tags and cut ends, also called Hz4A01v3-1) VHH: EVQLVESGGGEVQPGGSLRLSCAASGFTFSTSGMVWVRQAPGKGLEWVSTISDDARIIRYAESVKGRFTISRDNAKNTLYLQMNSLRAEDTAVYYCATYRAGSRIGSYEDYYRGQGTLVTVKP",–
0.169,0.136,0.143,–,–,–,1.35,0.147,"4A01v3-8 (Fc fusion, also called Hz4A01v3-8; not shown: Human Fc carrier and its linker) VHH: EVQLVESGGGEVQPGGSLRLSCAASGFAFSTSGMVWVRQAPGKGLEWVSTISDDARIIRYAESVKGRFTISRDNAKNTLYLQMNSLRAEDTAVYYCATYRAGSRIGSYEDYYWGQGTLVTVKP",–
–,–,–,–,–,–,–,–,"4A01v5 (Fc fusion, not shown: a dimerising Fc or GST; small tags and cut ends, also called Hz4A01v5) VHH: EVQLVESGGGEVQPGGSLRLSCAASGFAFSTSGMVWVRQAPGKGLEWVSTISDEGRIIRYAESVKGRFTISRDNAKNTLYLQMNSLRAEDTAVYYCATYRAGSRIGSYEDYYRGQGTLVTVKP",Bmax [5]: 1 A650; Kd [5]: 0.26 nM; Bmax [6]: 0.957 A650; Kd [6]: 0.276 nM; Bmax [7]: 1.09 A650; Kd [7]: 0.189 nM; Bmax [4]: 0.939 A650; Kd [4]: 0.203 nM
–,–,–,–,–,–,–,–,"4A01v4 (Fc fusion, not shown: a dimerising Fc or GST; small tags and cut ends, also called Hz4A01v4) VHH: EVQLVESGGGEVQPGGSLRLSCAASGFAFSTSGMVWVRQAPGKGLEWVSTISDESRIIRYAESVKGRFTISRDNAKNTLYLQMNSLRAEDTAVYYCATYRAGSRIGSYEDYYRGQGTLVTVKP",Bmax [5]: 0.972 A650; Kd [5]: 0.32 nM; Bmax [6]: 0.947 A650; Kd [6]: 0.378 nM; Bmax [7]: 1.1 A650; Kd [7]: 0.25 nM; Bmax [4]: 0.954 A650; Kd [4]: 0.247 nM
0.152,0.129,0.142,1.32,1.36,1.35,1.35,0.142,"4A01v3-3 (Fc fusion, not shown: a dimerising Fc or GST; small tags and cut ends, also called Hz4A01v3-3) VHH: EVQLVESGGGEVQPGGSLRLSCAASGFAFSTSGMAWVRQAPGKGLEWVSTISDDARIIRYAESVKGRFTISRDNAKNTLYLQMNSLRAEDTAVYYCATYRAGSRIGSYEDYYRGQGTLVTVKP",–
0.252,0.151,0.241,1.41,1.43,1.4,1.37,0.181,"4A01v3-4 (Fc fusion, also called Hz4A01v3-4; not shown: Human Fc carrier and its linker) VHH: EVQLVESGGGEVQPGGSLRLSCAASGFAFSTSGMSWVRQAPGKGLEWVSTISDDARIIRYAESVKGRFTISRDNAKNTLYLQMNSLRAEDTAVYYCATYRAGSRIGSYEDYYRGQGTLVTVKP",–
–,–,–,–,–,–,–,–,cx12007 (B10a.v2.4 VHH x hz4A01v51.12 VHH) (bispecific antibody) EVQLLESGGGKVQPGGSLRLSCAASGSIANVDLMAWHRQAPGKQREPIAVINDAGSTYYAESVKGRFTISRDNAKNTLYLQMNSLRAEDTAVYYCNTATWRGGERYADWGQGTLVTVEPGSGGGSEVQLLESGGGKVQPGGSLRLSCAASGFTFSTSGMVWVRQAPGKGLEWVSTISDDARITVYAESVKGRFTISRDNAKNTVYLQMNSLRAEDTAVYYCATYRAGSRIGSYEDYYRGQGTLVTVEPGG,EC50 (read off the curve) [9]: ~0.4 nM; EC50 (read off the curve) [10]: ~0.4 nM; EC50 (read off the curve) [11]: ~0.4 nM; EC50 (read off the curve) [12]: ~0.3 nM
–,–,–,–,–,–,–,–,"cx12003 (bispecific antibody, anti-FcRn VHH linked to anti-albumin VHH) single polypeptide, format of FIG. 5(i): QVQLLESGGGEVQPGGSLRLSCAASGSIANVDLMAWHRQAPGKQREPIAVINDAGSTYYAESVKGRFTISRDNAKNTLYLQMNSLRAEDTAVYYCNTATWRGGERYADWGQGTLVTVEPGSGGGSQVQLLESGGGEVQPGGSLRLSCAASGFTFSTSGMVWVRQAPGKGLEWVSTISDDARITVYAESVKGRFTISRDNAKNTVYLQMNSLRAEDTAVYYCATYRAGSRIGSYEDYYRGQGTLVTVEPGG",EC50 (read off the curve) [9]: ~0.4 nM; EC50 (read off the curve) [11]: ~0.5 nM; EC50 (read off the curve) [12]: ~0.3 nM
–,–,–,–,–,–,–,–,"cx12006 (bispecific antibody, anti-FcRn VHH linked to anti-albumin VHH) single polypeptide, format of FIG. 5(i): QVQLLESGGGKVQPGGSLRLSCAASGSIANVDLMAWHRQAPGKQREPIAVINDAGSTYYAESVKGRFTISRDNAKNTLYLQMNSLRAEDTAVYYCNTATWRGGERYADWGQGTLVTVEPGSGGGSQVQLLESGGGKVQPGGSLRLSCAASGFTFSTSGMVWVRQAPGKGLEWVSTISDDARITVYAESVKGRFTISRDNAKNTVYLQMNSLRAEDTAVYYCATYRAGSRIGSYEDYYRGQGTLVTVEPGG",EC50 (read off the curve) [9]: ~0.4 nM; EC50 (read off the curve) [10]: ~0.4 nM; EC50 (read off the curve) [11]: ~0.4 nM; EC50 (read off the curve) [12]: ~0.3 nM
–,–,–,–,–,–,–,–,"cx12008 (bispecific antibody, anti-FcRn VHH linked to anti-albumin VHH) single polypeptide, format of FIG. 5(i): EVQLLESGGGEVQPGGSLRLSCAASGSIANVDLMAWHRQAPGKQREPIAVINDAGSTYYAESVKGRFTISRDNAKNTLYLQMNSLRAEDTAVYYCNTATWRGGERYADWGQGTLVTVRPGSGGGSEVQLVESGGGEVQPGGSLRLSCAASGFTFSTSGMVWVRQAPGKGLEWVSTISDDARITVYAESVKGRFTISRDNAKNTVYLQMNSLRAEDTAVYYCATYRAGSRIGSYEDYYRGQGTLVTVRPGG",EC50 (read off the curve) [9]: ~0.4 nM; EC50 (read off the curve) [10]: ~0.4 nM; EC50 (read off the curve) [11]: ~0.4 nM; EC50 (read off the curve) [12]: ~0.7 nM
